Experimental data published in publication doi:10.1101/2020.02.12.945170, “Regulated unbinding of ZAP70 at the T cell receptor by kinetic avidity” (bioRxiv, 2020).
Square brackets hold non-standard residues; d marks the D form. Ends that are not written are not given here. * marks the point of attachment. Biotin = O=C1N[C@H]2[C@H](CS[C@H]2CCCCC(=O)*)N1; pY = N[C@@H](Cc1ccc(OP(=O)(O)O)cc1)C(=O)O

T1: ZAP70 tSH2-GFP (tandem SH2 domains of human ZAP70, amino acids 1-264, with C-terminal GFP) (human, UniProt P43403 1-264)
T1 construct: tandem SH2 domains of human ZAP70 (Zeta-chain-associated protein kinase 70), amino acids 1-264; Cloned into pET21 between NdeI and NotI; source: E. coli BL21 (DE3), purified (Ni2+-NTA, Sephacryl S-200 size exclusion); not shown: GFP, C-terminal, kept
T1 sequence (looked up): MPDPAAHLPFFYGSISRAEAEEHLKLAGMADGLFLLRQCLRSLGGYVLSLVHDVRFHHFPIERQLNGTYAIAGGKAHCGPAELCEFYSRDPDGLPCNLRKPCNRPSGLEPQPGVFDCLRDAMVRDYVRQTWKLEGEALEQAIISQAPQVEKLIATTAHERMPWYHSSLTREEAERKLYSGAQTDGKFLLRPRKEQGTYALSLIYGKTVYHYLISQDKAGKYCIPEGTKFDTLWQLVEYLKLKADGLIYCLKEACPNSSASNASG


Experiments:
[1] = target: T1, ZAP70 tSH2-GFP (tandem SH2 domains of …); test: single particle tracking by TIRF microscopy; biotinylated ITAM3 peptides immobilised on coverslips coated with poly-L-lysine-PEG-biotin and streptavidin; ZAP70 tSH2-GFP or tSH2-Halo-Alexa647 at 200 nM in PBS/BSA with 1 mM DTT; 37°C; distributions of binding times fitted with exponentials (slow phase of a two-phase decay for the biphosphorylated peptide); conditions: both partners purified
[2] = target: T1, ZAP70 tSH2-GFP (tandem SH2 domains of …); test: SPR; Biacore S200, 37°C, HBS-EP (10 mM HEPES pH 7.4, 150 mM NaCl, 1 mM EDTA, 0.005% Tween P20), 50 µl/min; biotinylated peptides or Avi-CD3ζ ITAM3 immobilised on streptavidin-coupled CM5 chips, ZAP70 tSH2-GFP injected; 1:1 binding model, 'effective' constants for the biphosphorylated peptide; on Avi-CD3ζ ITAM3 also ABA injections of 500 nM ZAP70 with CD45 cytoplasmic domain; conditions: both partners purified

| koff [1] [s⁻¹] | Kd [2] [nM] | koff [2] [s⁻¹] | kon [2] [M⁻¹ s⁻¹] | Binder |
| --- | --- | --- | --- | --- |
| 11.4 ± 0.011 |  |  |  | Biotin-GKGHDLL[pY]QGLSTATKDTYDALHMQ (peptide derived from the membrane-distal ITAM of CD3ζ (ITAM3); also called ITAM N; monophosphorylated ITAM3 N; source: synthetic peptide; bought: PeptideSynthetics (>95% pure)) [ITAM3 N (N-monophosphorylated CD3ζ ITAM3 peptide)] |
| 4.75 ± 0.14 |  |  |  | Biotin-GKGHDLLYQGLSTATKDT[pY]DALHMQ (peptide derived from the membrane-distal ITAM of CD3ζ (ITAM3); also called ITAM C; monophosphorylated ITAM3 C; source: synthetic peptide; bought: PeptideSynthetics (>95% pure)) [ITAM3 C (C-monophosphorylated CD3ζ ITAM3 peptide)] |
| 0.368 ± 0.011 | 96 | 0.227 | 1.89e+06 | Biotin-GKGHDLL[pY]QGLSTATKDT[pY]DALHMQ (peptide derived from the membrane-distal ITAM of CD3ζ (ITAM3); also called ITAM NC; biphosphorylated ITAM3; source: synthetic peptide; bought: PeptideSynthetics (>95% pure)) [ITAM3 NC (biphosphorylated CD3ζ ITAM3 peptide)] |
